Results from IntAct's records for PubMed 10523676.

B1: DNA polymerase alpha catalytic subunit (Mus musculus), P33609 (parent)
chain: MAPMHEEDCKLEASAVSDSGSFAASRARREKKSKKGRQEALERLKKAKAGEKYKYEVEDLTSVYEEVDEEQYSKLVQARQDDDWIVDDDGIGYVEDGREIFDDDLEDDALDTCGKGSDGKAHRKDRKDVKKPSVTKPNNIKAMFIASAGKKTTDKAVDLSKDDLLGDILQDLNTETAQITPPPVLIPKKKRSTGALLNPFSVHTPKAIPSGKPASPVLRNEPLLTPIPLKRAELAGELAQPECPEDEQELGVMEFEDGDFDESMDTEKVDEKPVTAKTWDQETEPVERVEHEADPERGTTSYLENFLPDVSCWDIDQDDESIPQEVQVDSSNLPLVKGADDEQVFQFYWLDAYEDPYNQPGVVFLFGKVWIESVKTHVSCCVMVKNIERTLYFLPREMKFDLNTGKETAIPVTMKDVYEEFDSKISAKYKIMKFKSKIVEKNYAFEIPDVPEKSEYLEVRYSAEVPQLPQNLKGETFSHVFGTNTSSLELFLMNRKIKGPCWLEVKNPQLLNQPISWCKFEVMALKPDLVNVIKDVSPPPLVVMSFSMKTMQNVQNHQHEIIAMAALVHHSFALDKAPPEPPFQTHFCVVSKPKDCIFPCDFKEVISKKNMKVEIAATERTLIGFFLAKVHKIDPDILVGHNICSFELEVLLQRINECKVPYWSKIGRLRRSNMPKLGSRSGFGERNATCGRMICDVEISAKELIHCKSYHLSELVQQILKTERIVIPTENIRNMYSESSYLLYLLEHIWKDARFILQIMCELNVLPLALQITNIAGNIMSRTLMGGRSERNEFLLLHAFYENNYIVPDKQIFRKPQQKLGDEDEEIDGDTNKYKKGRKKATYAGGLVLDPKVGFYDKFILLLDFNSLYPSIIQEFNICFTTVQRVTSEVQKATEDEEQEQIPELPDPNLEMGILPREIRKLVERRKQVKQLMKQQDLNPDLVLQYDIRQKALKLTANSMYGCLGFSYSRFYAKPLAALVTYKGREILMHTKDMVQKMNLEVIYGDTDSIMINTNSTNLEEVFKLGNKVKSEVNKLYKLLEIDIDAVFKSLLLLKKKKYAALVVEPTSDGNYITKQELKGLDIVRRDWCDLAKDTGNFVIGQILSDQSRDTIVENIQKRLIEIGENVLNGSVPVSQFEINKALTKDPQDYPDRKSLPHVHVALWINSQGGRKVKAGDTVSYVICQDGSNLTATQRAYAPEQLQKLDNLAIDTQYYLAQQIHPVVARICEPIDGIDAVLIALWLGLDSTQFRVHQYHKDEENDALLGGPAQLTDEEKYKDCEKFKCLCPSCGTENIYDNVFEGSGLDMEPSLYRCSNVDCKVSPLTFMVQLSNKLIMDIRRCIKKYYDGWLICEEPTCCSRLRRLPLHFSRNGPLCPVCMKAVLRPEYSDKSLYTQLCFYRYIFDADCALEKLTEHEKDKLKKQFFPLRVLQDYRKVKNIAEQFLSWSGYSEVNLSKLFANYAGKS
partner: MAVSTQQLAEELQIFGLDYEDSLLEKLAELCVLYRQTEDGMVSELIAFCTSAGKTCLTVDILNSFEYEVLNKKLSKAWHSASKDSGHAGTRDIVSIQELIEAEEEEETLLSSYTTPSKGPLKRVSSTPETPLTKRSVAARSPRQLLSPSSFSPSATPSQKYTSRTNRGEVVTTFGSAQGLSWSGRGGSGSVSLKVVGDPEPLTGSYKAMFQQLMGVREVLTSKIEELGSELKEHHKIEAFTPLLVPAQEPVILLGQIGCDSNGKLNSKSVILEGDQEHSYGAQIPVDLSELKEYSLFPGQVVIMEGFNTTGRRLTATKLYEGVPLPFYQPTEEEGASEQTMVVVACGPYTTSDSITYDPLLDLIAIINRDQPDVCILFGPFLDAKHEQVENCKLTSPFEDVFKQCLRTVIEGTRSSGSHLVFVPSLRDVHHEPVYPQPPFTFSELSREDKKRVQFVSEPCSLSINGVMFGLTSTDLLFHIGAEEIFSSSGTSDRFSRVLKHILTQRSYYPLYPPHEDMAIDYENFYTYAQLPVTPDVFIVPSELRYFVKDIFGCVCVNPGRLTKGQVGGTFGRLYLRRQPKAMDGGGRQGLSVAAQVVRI

Variants of: B1
Conditions: with dpoa2_mouse Pola2, P33611
C1287A;C1290A was tested, and the “effect of a mutation on the interaction” value was “decreasing interaction”.
For C1375A;C1378A, the “effect of a mutation on the interaction” value was “decreasing interaction”.
